Source: US20230285585A1, “TREATMENT OF PULMONARY HYPERTENSION” (PHILOGEN S.P.A., priority 2020, published 2023)
One block for each molecule: values may come before it.

What was measured:
[1] = system: Monocrotaline (MCT) induced pulmonary hypertension (PH) in C57BL/6 mice; assay: Right heart catheterization in MCT induced PH mouse model (Example 4); type: in vivo; conditions: for pressure values in the right ventricle, RVPsys (result in words): in contrast to KSF containing control immunocytokines
Description: To induce Pulmonary Hypertension (PH), C57BL/6 mice (bodyweight: 25-30 g) were used. The animals were obtained from ZET facility (Zentrale Experimentelle Tierhaltung) of the University Hospital Jena (UKJ, Jena, Germany). Prior to PH induction, mice were allowed to acclimatize for at least 7 days with ad libitum access to food and water as well as controlled light/dark cycles. In this set of experiments, 50 animals were investigated divided into the following 7 experimental groups: • sham induced controls (n=10) • MCT induced PH (n=8) • MCT induced PH+MACI (n=8) • MCT induced PH+F8mIL9F8 in CrAb format (n=6) • MCT induced PH+KSFmIL9KSF in CrAb format (n=6) • MCT induced PH+F8_(IgG-HC4)-mIL9 (n=6) • MCT induced PH+KSF_(IgG-HC4)-mIL9 (n=6)
For PH induction, the Monocrotaline (MCT, Carl Roth, Germany) method was used.
The sham induced controls were injected with 30 μl NaCl not containing MCT at day 1 (single dose; intraperitoneally, i.p.). […] The other 6 experimental groups were injected with MCT (single dose; intraperitoneally, i.p.; 60 mg/kg body weight; volume 30 μl). Animals in the MCT induced PH+MACI group received the drug (Macitentan, Actelion Pharmaceuticals Ltd.) from day 14 to day 28 (once daily; per os; 15 mg/kg body weight).
Animals in the MCT induced PH+F8mIL9F8 in CrAb format group received F8mIL9F8 3 times on days 14, 16 and 18 (intravenously, i.v.; 200 μg/injection; volume 154 μl). Animals in the MCT induced PH+KSFmIL9KSF in CrAb format group received KSFmIL9KSF 3 times on days 14, 16 and 18 (intravenously, i.v.; 198 μg/injection; volume 182 μl).
Animals in the MCT induced PH+F8_(IgG-HC4)-mIL9 group received F8_(IgG-HC4)-mIL9 3 times on days 14, 16 and 18 (intravenously, i.v.; 261 μg/injection; volume 137 μl). Animals in the MCT induced PH+KSF_(IgG-HC4)-mIL9 group received KSF_IgG-HC4mIL9 3 times on days 14, 16 and 18 (intravenously, i.v.; 258 μg/injection; volume 161 μl).
On day 28 after MCT injection, mice of all experimental groups were deeply anesthetized with a single dose of 100 mg/kg body weight ketamine and 10 mg/kg body weight Xylazin in approximately 60 μl each administered i.p.
Right heart catheterization using a 1.4 F micro conductance pressure-volume catheter (Model SPR-839; Millar Instruments Inc; PowerLab system, ADInstruments Ltd., Oxford, UK) was performed via the right vena jugularis interna to measure the systolic right ventricular pressure and thereby verify the success of the experimental setting. Mice were then sacrificed in deep anesthesia and analgesia to carry out cardiac blood collection after thoracotomy and to harvest the organs.
(§1) Statistical analyses were performed using IBM SPSS statistical software, version 25.0 (IBM SPSS Statistics for Windows. Armonk, N.Y., USA). Data are expressed as mean±standard deviation. […]

[2] = system: Monocrotaline (MCT) induced pulmonary hypertension (PH) in C57BL/6 mice; assay: Echocardiographic assessment in MCT induced PH mouse model (Example 4); type: in vivo; conditions: in contrast to KSF containing control immunocytokines
Procedure: To induce Pulmonary Hypertension (PH), C57BL/6 mice (bodyweight: 25-30 g) were used. The animals were obtained from ZET facility (Zentrale Experimentelle Tierhaltung) of the University Hospital Jena (UKJ, Jena, Germany). Prior to PH induction, mice were allowed to acclimatize for at least 7 days with ad libitum access to food and water as well as controlled light/dark cycles. […]
Echocardiographic assessment was performed on day 28 using the Vevo 770 Rodent-Ultrasound-System, Visual Sonic, Canada, 17 MHz probe RMV176. […] Body temperature and respiratory rate were continuously monitored. All surrogate parameters of right ventricular (RV) morphology and function were assessed, among others, RV basal and medial diameters (in mm), RV length (in mm), tricuspid annular plane systolic excursion (TAPSE, in mm), right atrial area (RA area, in mm^2) or main pulmonary artery diameter (MPA, in mm).
as §1

[3] = target: T1, recombinant fibronectin 11A12 domain (EDA) (Homo sapiens, UniProt P02751); assay: Biacore surface plasmon resonance binding analysis; conditions: SPR, BIAcore X100, CM5 chip coated with recombinant fibronectin 11A12 domain
T1 construct: recombinant fibronectin 11A12 domain
Procedure: Binding affinity was determined by surface plasmon resonance using a BIAcore X100 instrument using a CM5 chip coated with recombinant fibronectin 11A12 domain. Samples were injected as serial-dilution, using a concentration range from […] to 125 nM.

T1 sequence (P02751 1629-1905 limits assumed): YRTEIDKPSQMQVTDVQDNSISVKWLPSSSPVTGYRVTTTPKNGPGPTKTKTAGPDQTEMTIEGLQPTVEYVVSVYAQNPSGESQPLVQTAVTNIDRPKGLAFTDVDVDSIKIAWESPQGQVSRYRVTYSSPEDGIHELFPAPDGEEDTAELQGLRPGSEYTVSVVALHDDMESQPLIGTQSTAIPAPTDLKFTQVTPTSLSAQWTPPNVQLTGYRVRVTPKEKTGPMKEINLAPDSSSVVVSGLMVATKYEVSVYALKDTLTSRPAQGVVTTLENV

Molecule: F8(IgG4-HC)-mIL9: two murine IL9 moieties fused to C-termini of heavy chains of F8 IgG4; SEQ ID NOs: 61 and 62
- treatment effects relative to MACI (result in words) [1]: improved compared with the effects achieved by MACI
- pressure values in the right ventricle, RVPsys (result in words) ([1]; listed as F8_(IgG-HC4)-mIL9): significantly reduced
- pressure values in the right ventricle, RVPsys (result in words) ([1]; listed as IgG-HC4mIL9): significantly reduce
- echocardiographic signs of right ventricular load and dysfunction (result in words) [2]: significantly improved a variety

- apparent KD [3]: in the nM range
Molecule: F8(db)-hIL9: human IL9 conjugated to the C-terminus of the F8 diabody; SEQ ID NO: 22

- apparent KD [3]: in the nM range
Molecule: F8(scFv)-hIL9-F8(scFv): human IL9 conjugated at N- and C-terminus to an F8 scFv, CrAb format; SEQ ID NO: 18

- apparent KD [3]: in the nM range
Molecule: hIL9-F8(db): human IL9 conjugated to the N-terminus of the F8 diabody; SEQ ID NO: 23

- apparent KD [3]: in the nM range
B1: F8(db)-mIL9: murine IL9 conjugated to the C-terminus of the F8 diabody; SEQ ID NO: 20 (protein)
chain: EVQLLESGGGLVQPGGSLRLSCAASGFTFSLFTMSWVRQAPGKGLEWVSAISGSGGSTYYADSVKGRFTISRDNSKNTLYLQMNSLRAEDTAVYYCAKSTHLYLFDYWGQGTLVTVSSGGSGGEIVLTQSPGTLSLSPGERATLSCRASQSVSMPFLAWYQQKPGQAPRLLIYGASSRATGIPDRFSGSGSGTDFTLTISRLEPEDFAVYYCQQMRGRPPTFGQGTKVEIKGGGGSGGGGSGGGGSQRCSTTWGIRDTNYLIENLKDDPPSKCSCSGNVTSCLCLSVPTDDCTTPCYREGLLQLTNATQKSRLLPVFHRVKRIVEVLKNITCPSFSCEKPCNQTMAGNTLSFLKSLLGTFQKTEMQRQKSRP
modifications: of murine IL9 conjugated to the C-terminus of the F8 diabody (F8(Db)-mIL9)

- apparent KD [3]: in the nM range
B2: mIL9-F8(db): murine IL9 conjugated to the N-terminus of the F8 diabody; SEQ ID NO: 21 (protein)
chain: QRCSTTWGIRDTNYLIENLKDDPPSKCSCSGNVTSCLCLSVPTDDCTTPCYREGLLQLTNATQKSRLLPVFHRVKRIVEVLKNITCPSFSCEKPCNQTMAGNTLSFLKSLLGTFQKTEMQRQKSRPGGGGSGGGGSGGGGSEVQLLESGGGLVQPGGSLRLSCAASGFTFSLFTMSWVRQAPGKGLEWVSAISGSGGSTYYADSVKGRFTISRDNSKNTLYLQMNSLRAEDTAVYYCAKSTHLYLFDYWGQGTLVTVSSGGSGGEIVLTQSPGTLSLSPGERATLSCRASQSVSMPFLAWYQQKPGQAPRLLIYGASSRATGIPDRFSGSGSGTDFTLTISRLEPEDFAVYYCQQMRGRPPTFGQGTKVEIK
modifications: murine IL9 conjugated to the N-terminus of the F8 diabody (mIL9-F8(Db))
